Results on 14 molecules are retold here after US20190336574A1 (TRUSTEES OF PRINCETON UNIVERSITY, published 2019).

B1: GST-MTDH (364-582), wild type (other)
chain: YQWDVSRNQPYIDDEWSGLNGLSSADPNSDWNAPAEEWGNWVDEERASLLKSQEPIPDDQKVSDDDKEKGEGALPTGKSKKKKKKKKKQGEDNSTAQDTEELEKEIREDLPVNTSKTRPKQEKAFSLKTISTSDPAEVLVKNSQPIKTLPPATSTEPSVILSKSDSDKSSSQVPPILQETDKSKSNTKQNSVPPSQTKSETSWESPKQIKKKKKARRET
notes: not shown: N-terminal GST tag with TEV site, pQlink vector
B2: GST-MTDH (364-582) E400R (other)
chain: YQWDVSRNQPYIDDEWSGLNGLSSADPNSDWNAPAERWGNWVDEERASLLKSQEPIPDDQKVSDDDKEKGEGALPTGKSKKKKKKKKKQGEDNSTAQDTEELEKEIREDLPVNTSKTRPKQEKAFSLKTISTSDPAEVLVKNSQPIKTLPPATSTEPSVILSKSDSDKSSSQVPPILQETDKSKSNTKQNSVPPSQTKSETSWESPKQIKKKKKARRET
notes: as for B1
B3: GST-MTDH (364-582) D389R (other)
chain: YQWDVSRNQPYIDDEWSGLNGLSSARPNSDWNAPAEEWGNWVDEERASLLKSQEPIPDDQKVSDDDKEKGEGALPTGKSKKKKKKKKKQGEDNSTAQDTEELEKEIREDLPVNTSKTRPKQEKAFSLKTISTSDPAEVLVKNSQPIKTLPPATSTEPSVILSKSDSDKSSSQVPPILQETDKSKSNTKQNSVPPSQTKSETSWESPKQIKKKKKARRET
notes: as for B1
B4: GST-MTDH (364-582) E400A (other)
chain: YQWDVSRNQPYIDDEWSGLNGLSSADPNSDWNAPAEAWGNWVDEERASLLKSQEPIPDDQKVSDDDKEKGEGALPTGKSKKKKKKKKKQGEDNSTAQDTEELEKEIREDLPVNTSKTRPKQEKAFSLKTISTSDPAEVLVKNSQPIKTLPPATSTEPSVILSKSDSDKSSSQVPPILQETDKSKSNTKQNSVPPSQTKSETSWESPKQIKKKKKARRET
notes: as for B1
B5: GST-MTDH (364-582) N395A (other)
chain: YQWDVSRNQPYIDDEWSGLNGLSSADPNSDWAAPAEEWGNWVDEERASLLKSQEPIPDDQKVSDDDKEKGEGALPTGKSKKKKKKKKKQGEDNSTAQDTEELEKEIREDLPVNTSKTRPKQEKAFSLKTISTSDPAEVLVKNSQPIKTLPPATSTEPSVILSKSDSDKSSSQVPPILQETDKSKSNTKQNSVPPSQTKSETSWESPKQIKKKKKARRET
notes: as for B1
B6: His-SND1(16-339) P43G/R324E (protein)
single chain: VPTVQRGIIKMVLSGCAIIVRGQPRGGGPPERQINLSNIRAGNLARRAAATQPDAKDTPDEPWAFPAREFLRKKLIGKEVCFTIENKTPQGREYGMIYLGKDTNGENIAESLVAEGLATRREGMRANNPEQNRLSECEEQAKAAKKGMWSEGNGSHTIRDLKYTIENPRHFVDSHHQKPVNAIIEHVRDGSVVRALLLPDYYLVTVMLSGIKCPTFRREADGSETPEPFAAEAKFFTESRLLQRDVQIILESCHNQNILGTILHPNGNITELLLKEGFARCVDWSIAVYTRGAEKLRAAERFAKERRLEIWRDYVAPTANLDQK
B7: His-SND1 (16-339), SN1/2 domains, wild type (other)
chain: VPTVQRGIIKMVLSGCAIIVRGQPRGGPPPERQINLSNIRAGNLARRAAATQPDAKDTPDEPWAFPAREFLRKKLIGKEVCFTIENKTPQGREYGMIYLGKDTNGENIAESLVAEGLATRREGMRANNPEQNRLSECEEQAKAAKKGMWSEGNGSHTIRDLKYTIENPRHFVDSHHQKPVNAIIEHVRDGSVVRALLLPDYYLVTVMLSGIKCPTFRREADGSETPEPFAAEAKFFTESRLLQRDVQIILESCHNQNILGTILHPNGNITELLLKEGFARCVDWSIAVYTRGAEKLRAAERFAKERRLRIWRDYVAPTANLDQK
notes: also called His6-SND1 harboring the SN1/2 domains; not shown: N-terminal His tag (His6, His8 or His) with TEV site, pQlink vector
B8: SND1 (16-339) R255E (other)
chain: VPTVQRGIIKMVLSGCAIIVRGQPRGGPPPERQINLSNIRAGNLARRAAATQPDAKDTPDEPWAFPAREFLRKKLIGKEVCFTIENKTPQGREYGMIYLGKDTNGENIAESLVAEGLATRREGMRANNPEQNRLSECEEQAKAAKKGMWSEGNGSHTIRDLKYTIENPRHFVDSHHQKPVNAIIEHVRDGSVVRALLLPDYYLVTVMLSGIKCPTFRREADGSETPEPFAAEAKFFTESELLQRDVQIILESCHNQNILGTILHPNGNITELLLKEGFARCVDWSIAVYTRGAEKLRAAERFAKERRLRIWRDYVAPTANLDQK
notes: not shown: N-terminal His tag (His6, His8 or His) with TEV site, pQlink vector
B9: SND1 (16-339) F250A (other)
chain: VPTVQRGIIKMVLSGCAIIVRGQPRGGPPPERQINLSNIRAGNLARRAAATQPDAKDTPDEPWAFPAREFLRKKLIGKEVCFTIENKTPQGREYGMIYLGKDTNGENIAESLVAEGLATRREGMRANNPEQNRLSECEEQAKAAKKGMWSEGNGSHTIRDLKYTIENPRHFVDSHHQKPVNAIIEHVRDGSVVRALLLPDYYLVTVMLSGIKCPTFRREADGSETPEPFAAEAKAFTESRLLQRDVQIILESCHNQNILGTILHPNGNITELLLKEGFARCVDWSIAVYTRGAEKLRAAERFAKERRLRIWRDYVAPTANLDQK
notes: as for B8
B10: SND1 (16-339) R324E (other)
chain: VPTVQRGIIKMVLSGCAIIVRGQPRGGPPPERQINLSNIRAGNLARRAAATQPDAKDTPDEPWAFPAREFLRKKLIGKEVCFTIENKTPQGREYGMIYLGKDTNGENIAESLVAEGLATRREGMRANNPEQNRLSECEEQAKAAKKGMWSEGNGSHTIRDLKYTIENPRHFVDSHHQKPVNAIIEHVRDGSVVRALLLPDYYLVTVMLSGIKCPTFRREADGSETPEPFAAEAKFFTESRLLQRDVQIILESCHNQNILGTILHPNGNITELLLKEGFARCVDWSIAVYTRGAEKLRAAERFAKERRLEIWRDYVAPTANLDQK
notes: as for B8
B11: SND1 (16-339) R324A (other)
chain: VPTVQRGIIKMVLSGCAIIVRGQPRGGPPPERQINLSNIRAGNLARRAAATQPDAKDTPDEPWAFPAREFLRKKLIGKEVCFTIENKTPQGREYGMIYLGKDTNGENIAESLVAEGLATRREGMRANNPEQNRLSECEEQAKAAKKGMWSEGNGSHTIRDLKYTIENPRHFVDSHHQKPVNAIIEHVRDGSVVRALLLPDYYLVTVMLSGIKCPTFRREADGSETPEPFAAEAKFFTESRLLQRDVQIILESCHNQNILGTILHPNGNITELLLKEGFARCVDWSIAVYTRGAEKLRAAERFAKERRLAIWRDYVAPTANLDQK
notes: as for B8
B12: His-SND1(16-339) P43G (other)
single chain: VPTVQRGIIKMVLSGCAIIVRGQPRGGGPPERQINLSNIRAGNLARRAAATQPDAKDTPDEPWAFPAREFLRKKLIGKEVCFTIENKTPQGREYGMIYLGKDTNGENIAESLVAEGLATRREGMRANNPEQNRLSECEEQAKAAKKGMWSEGNGSHTIRDLKYTIENPRHFVDSHHQKPVNAIIEHVRDGSVVRALLLPDYYLVTVMLSGIKCPTFRREADGSETPEPFAAEAKFFTESRLLQRDVQIILESCHNQNILGTILHPNGNITELLLKEGFARCVDWSIAVYTRGAEKLRAAERFAKERRLRIWRDYVAPTANLDQK
notes: mutant named only on the sheet
B13: SND1 (16-339) R316E (negative control mutation outside the interface) (other)
chain: VPTVQRGIIKMVLSGCAIIVRGQPRGGPPPERQINLSNIRAGNLARRAAATQPDAKDTPDEPWAFPAREFLRKKLIGKEVCFTIENKTPQGREYGMIYLGKDTNGENIAESLVAEGLATRREGMRANNPEQNRLSECEEQAKAAKKGMWSEGNGSHTIRDLKYTIENPRHFVDSHHQKPVNAIIEHVRDGSVVRALLLPDYYLVTVMLSGIKCPTFRREADGSETPEPFAAEAKFFTESRLLQRDVQIILESCHNQNILGTILHPNGNITELLLKEGFARCVDWSIAVYTRGAEKLRAAEEFAKERRLRIWRDYVAPTANLDQK
notes: as for B8
B14: SND1 (16-339) Δ39-43 (deletion in the SN1 Lβ2-β3 loop) (other)
chain: VPTVQRGIIKMVLSGCAIIVRGQPPERQINLSNIRAGNLARRAAATQPDAKDTPDEPWAFPAREFLRKKLIGKEVCFTIENKTPQGREYGMIYLGKDTNGENIAESLVAEGLATRREGMRANNPEQNRLSECEEQAKAAKKGMWSEGNGSHTIRDLKYTIENPRHFVDSHHQKPVNAIIEHVRDGSVVRALLLPDYYLVTVMLSGIKCPTFRREADGSETPEPFAAEAKFFTESRLLQRDVQIILESCHNQNILGTILHPNGNITELLLKEGFARCVDWSIAVYTRGAEKLRAAERFAKERRLRIWRDYVAPTANLDQK
notes: also called 439-43; not shown: N-terminal His tag (His6, His8 or His) with TEV site, pQlink vector

For one test, the target named is B7. The experiment in a line: GST pull-down on glutathione resin, SDS-PAGE, Coomassie blue; normalised percentage of binding, mean±SEM of three experiments. The source says:
(§1) The proteins bound to GS4B were examined on SDS-PAGE and visualized by Coomassie blue staining. […] The bound proteins were examined as in (FIG. 22A). For both (FIG. 22A) and (FIG. 22B), experiments were repeated three times; representative results are shown. The normalized percentage of binding was averaged from three experiments; mean±SEM was shown below the data. (FIG. 22C) HEK293T cells were transfected with human HA-SND1, WT Myc-MTDH or Myc-MTDH with indicated single point mutation. Lysates were immunoprecipitated with anti-Myc antibody and immunoblotted with the indicated antibodies. (FIG. 22D) HEK293T cells were transfected with human Myc-MTDH, WT HA-SND1 or mutant HA-SND1 with indicated single point mutations or deletions. Lysates were immunoprecipitated with anti-Myc and immunoblotted with the indicated antibodies.
(§2) GST-Mediated Pull-Down Assay: ˜20 μg of GST-MTDH (different truncation forms and site mutants) was bound to 10 μl of glutathione resin via GST tag. The resin was washed with 200 μl assay buffer (25 mM Tris, PH8.0, 150 mM NaCl, 3 mM DTT) three times to remove the excess unbound protein. […] The mixture was washed with 200 μl assay buffer twice before examined by SDS-PAGE, and visualized by Coomassie blue staining. The experiments were repeated 3 times and the ratio of SND1 associated with GST-MTDH was analyzed by ImageJ.
Identification of MTDH and SND1 mutants deficient in binding: To gain insight into how the interface characterized above contributes to MTDH-SND1 interaction, structure-guided mutagenesis studies were performed.
With B1, the “% Maximum binding” value amounted to 100%. Still for that read-out and setting: for B2 the value was 70%; for B3, 60%. With B4, the “% Maximum binding” value was 80%. The same measure, in the same setting: to B5 belongs 84%.

The next test concerns the target B1. The test is described as follows: pull-down by GST-MTDH (364-582) on glutathione resin, SDS-PAGE, Coomassie blue; normalised percentage of binding, mean±SEM of three experiments.
From the text: as §1, §2
The molecule B6 gave a % Maximum binding of 9%. As for B7, the “% Maximum binding” value turned out to be 100%. For the molecule B8, the “% Maximum binding” value turned out to be 2%. As to B9, the “% Maximum binding” value is 9%. Take B10: the “% Maximum binding” value worked out at 26%.

Turning to B11, the “% Maximum binding” value came out at 70%.

Take B12: the “% Maximum binding” value is 67%.

Take B13: the “% Maximum binding” value worked out at 88%. Still for that read-out and setting: to B14 belongs 2%.
